The values that follow come from the domain aggregation screens of Martell et al. (2025).

A short description of the series: soluble fraction after stress (log2 fold change); higher = more stays soluble; pooled small domains, quantitative proteomics. The settings on record: stress: 50 degC. An outline of the steps:
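The stress applied to every library was 50°C. These custom libraries of small protein domains were pooled and measured at high throughput with quantitative proteomics as the read-out. Aggregation propensity is expressed as the base-two logarithm of the fold change in how much of each protein remains soluble. The higher the value, the more of that protein stays in solution.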
“HMADVSPEAQHKMVEAFAQFGVTKEHIEQRIQRRLDAIQPAQMVTLKRIFASLRDGMSTPAEWFE”: the “soluble fraction (log2)” value was -0.227.

As for “HMADYSGYLGKKGKVIAPLRPAGTALIDGERVDVVSFGDYIDKDSEIEVVKIEGSKLLVKKY”, the “soluble fraction (log2)” value came out at 0.141.

With “HMAEAIVMSTAAPVKSSPDPQSKDIFVLHEGTKVAVGDSLGDWREIRIADGNKGWVLVSAIEMI”, the “soluble fraction (log2)” value came out at 0.0979.

With “HMAEDGNMTFEEYAKRWLARQVRYAPSTLESYRRMLGRVYPFIGAIPINRLRPIALENLLAELRKRT”, the “soluble fraction (log2)” value is -0.48.

“HMAEEFESMTEARRLELARLVDSRGFVRVTDAAEELGVSDVTIRGDLSELERRGLLTRVHGGAMPVT”: the “soluble fraction (log2)” value was found to be 0.0215.

As to “HMAEKEYYYATDALNLRQGPGMEHTVKGEVVLGERVALLGLEGKWAKIQNAQGTTGYVFSAYLAPS”, the “soluble fraction (log2)” value amounted to 0.0931.

Consider “HMAEMLENQLKHAKSKQEANEYIAAAIGGVSDDDPDKEYLVAAYNEISKEFHHSSAYHRLPDT”, for which the “soluble fraction (log2)” value was -0.0511.

In the case of “HMAEMRYLDQIYEVNVPLPDLSLEDGDLLARWAVNFHQRYEELFSYRQSDQEIRLVTLRVTVLGELP”, the “soluble fraction (log2)” value was -0.653.

“HMAENMNAALRVSSLINQIGTVNAKAKDRIESARKAYDALSEAQKAYVANLTTLETAETSLSKL”: the “soluble fraction (log2)” value was 0.179.

As for “HMAENTIPSVIGKTLSDATFLLESYGYERGGVSEEYSEMPKGVVIRQSPQAGSSADPGTKVNLVVSLGEEI”, the “soluble fraction (log2)” value worked out at 0.174.

On to “HMAENTKKWDETGRRYRSYIKLEKRLSENTVESYMRDYMQFAHFILRQWDVAPHKVEPQMVERYMAWLYER”, for which the “soluble fraction (log2)” value is -0.00858.

“HMAEPIAAGKYTVSTSGSVLNMRVSPDADSQVLEKIPNGTIVEVTKSVLGWAYVTYNSAQGWVSSAYLV”: the “soluble fraction (log2)” value came to 0.15.

For the sequence “HMAEPLMTQIVEIEYADAEGLRENLEQFLTRLDEKTLLGSVLVDRHTNSLIIQAVRSDLERMLPLIETLDR”, the “soluble fraction (log2)” value was -0.731.

Take “HMAEPLYKQVKNKIIQNLTSDEWKPGSVIPSETKLAETYGVGVSTIRMAIGELVAARILIRRQGKGTFVSS”: the “soluble fraction (log2)” value was -1.85.

In the case of “HMAEQDILQSVYPHIGGQDNVSRTISRNGTLYLMLKDASAVDLKAVKQVPGIADAALERGRLTLQLEE”, the “soluble fraction (log2)” value came to 0.0398.

For the sequence “HMAEQLGNSRTANMVMLGAMIERTGVISIDSAMEALKATFGPKKEHLLPINRQAMEAGAAAARAV”, the “soluble fraction (log2)” value worked out at 0.303.

In the case of “HMAERVWASLLEIKNAVAIEDAKTLEDVDNSEKIAEERIAALNDDAKHPLAIAFIGKLRQDIAEKKIELA”, the “soluble fraction (log2)” value was 0.379.

Regarding “HMAESSPYTVRPGDTLWKILAQTQNARYNDFPYLYRKFRELNPNITDLNHIVSGQKIIVPHIPG”, the “soluble fraction (log2)” value came out at 0.0168.

On to “HMAESTRSRILNAAIEMMETGGESSVRLSAIAEALGIKEPSIYHHFTNRTELVNAAYIEWYW”, for which the “soluble fraction (log2)” value is -0.0152.

For “HMAEVDREEALRIALAHAAVARRDVRNLKIERGEENGVPVYKVEFETAFGDFDVAVSRRSGDVVDAD”, the “soluble fraction (log2)” value is 0.0689.

As for “HMAEVIYGAGKTPAQMLGILRTMQAHGQKTVLITRLREEAAEEIGREIPLQYDKTAGVGIVGTLPQPDG”, the “soluble fraction (log2)” value was -0.0493.

Take “HMAEVPSLIGKSLDAAKQAIIDAGFKVGSVSYDNSDSYGKGQVMWQQYEPSTKVKKGSSISIKVSKGS”: the “soluble fraction (log2)” value came to 0.00591.

As for “HMAEVRTLLVPIELAGMRFDQVLAELLPEFSRSRLAAWIKSGDALLDGHDAKPKGVVRGGEQIEIRLA”, the “soluble fraction (log2)” value amounted to 0.0321.

For “HMAFAVWVKLVAIGPNYAQLEIEQGTQRNVRTLRPGDDAPEGVRLLSLTPTHAEVQANGIARKLALGQGMA”, the “soluble fraction (log2)” value is -0.381.

Consider “HMAFDESLVRSIQELLSELGYSPGKIDGLLGAKTVAAIKAFELEINKDQLTGEPSEELLIALQLAIRSSKM”, for which the “soluble fraction (log2)” value was -1.13.

On to “HMAFDGIVLKNITNALKELINGKINKIQQSSKDNLTLSIYNQKSYNLYIDISANNYRVNLTTHSE”, for which the “soluble fraction (log2)” value came out at 0.103.

For “HMAFDYETYQLTSREFSIIELVADGRSNREIAEALYLGEGTVRNYLSSILEKLELRDRTQLAVFFYQHL”, the “soluble fraction (log2)” value is -2.3.

On to “HMAFIEIMTEGDADGRGFQYPIPTYSITRDFDWSETENNKLLFEMTAKYGTPYFSNYINSDMEPSDV”, for which the “soluble fraction (log2)” value is -0.535.

For the sequence “HMAGAITEREVEVLELLSRGLGNKEIAKELFVSEATVKSHLSHIYTKLAVDTRAGAVAAAIERRIIRAWR”, the “soluble fraction (log2)” value is -1.92.

“HMAGASQAVKAQLRLREMILAGELPGGARIAELTLVEKLGVSRTPIRAALMRLEQEGLLHRLPGGGYAVRT”: the “soluble fraction (log2)” value was -0.52.

Consider “HMAGDDEIEKIAQDILAAWPDKVAAYQAGNKGLMGLFMGELMKKSQGKANPKVASGIIQKLLD”, for which the “soluble fraction (log2)” value was 0.0445.

Regarding “HMAGEDPANLELMRLMDEEYMEHPTKGVLGMVDFLRALGILTGPKRVRRLLRKMGIMAIYPK”, the “soluble fraction (log2)” value is -0.0379.

As to “HMAGGVFELTGKVTADAKAGDLVYVKAATGAGTKPVVTTVKTGADVIIGWLKEPVSSASVDQKMQVVLA”, the “soluble fraction (log2)” value stood at 0.147.

Turning to “HMAGITLHAEEGRVRIRSQSEGLVKVLDAMGREQASWPLRSKGWWFFLTEGWAPGTYFVKTESGETQRFLV”, the “soluble fraction (log2)” value was 0.0535.

“HMAGNNTATKEIAELLIAKGADVNAMNLSPPGREIGGMTPLDMAILGNRNEIADLLRKHGGRTQKELKAE”: the “soluble fraction (log2)” value was 0.356.

Turning to “HMAGPGAEVVDRLIAVLTGERPATAADQVLLSILKGLGIGGVVLPSERTGLGWSGLYQRVKEITDMN”, the “soluble fraction (log2)” value is -1.29.

For “HMAGPRRRLLDAAIDRAAERGLGDLSLRALAEELGTSHRMLSHHFGSKDGLWLAIVEEVERRQ”, the “soluble fraction (log2)” value was -0.952.

As to “HMAGSTAASKHALALLNTARHSIRDGNLTSAAAEIKQALATSQEQIVITEARSLMTAMEARATTRRATVLQ”, the “soluble fraction (log2)” value was -0.168.

Consider “HMAGTAMRATTAVNVRSGAGTNYSRIGLLQAGEQIQALSSKNGWTQVSYKGRTGYVASAYLASL”, for which the “soluble fraction (log2)” value is -0.309.

In the case of “HMAGTGKVNTGVANVRSGPGTNYEISGKIYADTEVSILETSNGWYKIKFGNLTGWMSGTVLDIK”, the “soluble fraction (log2)” value was -0.138.

For the sequence “HMAGTPAVVKWFNPTKGFGFVTPREAGSDALLHASVLAKQGKRWLQEGTVVEVVLEEGPKGLVVSEVLTIE”, the “soluble fraction (log2)” value was -0.457.

As to “HMAGWMPGGTNPAEPGRFAVLMDVDDSDAYKHMFLRWNGHAWEFERTRVLVKMEPSWWMRLPDDPEKP”, the “soluble fraction (log2)” value is -1.99.

For the sequence “HMAHKRVDGTIVTPLTADTIVLRTGTHGEQPFEIRDTTRHKLESLQKGDMVILLIDTDNKVIDVAIPP”, the “soluble fraction (log2)” value is 0.423.

For “HMAHYYVRNGYYYYQRRIPLDLRKFYSGANIKASLKTKDPAIAALFVAKFDRQYDAEFAQRRLNPD”, the “soluble fraction (log2)” value was -0.482.

For the sequence “HMAIELIDLIKNPETAPFSKLKYLKWMPEAEVTGFFNNLFQLNVTARETGDWSTVDKFLEDEGDRIAAQVA”, the “soluble fraction (log2)” value is -0.138.

In the case of “HMAIEMSTITKRVTSTGEIRYRALLQIRREDVNYTESRTFSKKSLAEAWLKKREVELEANPELLHQ”, the “soluble fraction (log2)” value is -1.32.

Regarding “HMAIGERIRFLRTLRRMTQKELGLAAGFPEKNASIRMAQYENGTRTPKAELTAVLAEILKVSPQALTV”, the “soluble fraction (log2)” value is -1.2.

Consider “HMAIKNKNEQLEAIIKFADLRGEFKTADIEELLSIKSSRARLLISELVKIGKLESIGSNRNRRYHIK”, for which the “soluble fraction (log2)” value is -0.52.

With “HMAIKTGAVTGHGVKVRKGPSTNEKAIHDVLYGSRLQILEEKNGFLKAKFEDGTTGWISKQFVTTTDKNLL”, the “soluble fraction (log2)” value worked out at 0.223.

As for “HMAIKWTPEIEDEVSNKLKEKWSPEQISAWLKKNKSIMISHQRIYQFIVEDKMSGGNLYRNLRQ”, the “soluble fraction (log2)” value is -0.695.

As to “HMAIPTTDSDKATDAQIKQIKLLGDIHPNLKLDAWLERNHVTWETLTREQAGNMMKAIKNKYGD”, the “soluble fraction (log2)” value was -0.00881.

Regarding “HMAISEAERARLQTKIKERNKMARWINTNLNPTSKIRNINPAETVRKLMTQDDADSLERSLDAFMEA”, the “soluble fraction (log2)” value is -0.0378.

With “HMAIVNVEVPSLVGKTEQEARNLLTEAGLKVNVVNDEDESKNDGVVLRQSKDAGTEVQEGTTITITVNKVS”, the “soluble fraction (log2)” value is -0.218.

With “HMAKDDFMSFVKAVWPEFIEGAHHRVIAQKFNDLATGKITRLIVNMPPRHTKSEFASYLLPAW”, the “soluble fraction (log2)” value stood at 0.107.

As for “HMAKDEYGLTSNQRAFADEYIRNKGNATQAYLFAYPHIKKENTAAVNASRLLRNAKVSKYIADRTKEIL”, the “soluble fraction (log2)” value was determined as 0.287.

With “HMAKIDSRKALIDQLTTTFTRAQLEELITKNELSTDARFFLSQWNAKGWIRKTAKNVYEKLR”, the “soluble fraction (log2)” value was -0.134.

For “HMAKLTPDQQELRAIRIELQMSQPDFADAININVPRLSSYEYGRTAGVPTSIMEAARELKRSMSR”, the “soluble fraction (log2)” value was -0.811.

For “HMAKRDEIEAELPRFVATITQELAASRDVLSMIEHYKQNSGPVFSAELDVLTADMRSGSYEAALTRFEARF”, the “soluble fraction (log2)” value was determined as 0.0338.

For “HMAKRKYKSFKDVAEFAQKLGIKSSTEWWAYVRGHEIPSDIPKDPSTYYKKEWTTWGDFLGTGYVSSA”, the “soluble fraction (log2)” value was found to be 0.154.

For the sequence “HMAKRTVPSVAEAIDNFRRQHRRMPSYAEMLPLLGVRSKSVVHFWINKLLENGLLEKDDKGYLTPGS”, the “soluble fraction (log2)” value was -0.00958.

For the sequence “HMAKSPYDVLGLKEDAPFDEVKKRYRELVKKYHPDILMGRGESEEMIEKSTRKLQEINEAYETIKQRA”, the “soluble fraction (log2)” value amounted to 0.118.

Turning to “HMAKVDIPHEMVDQRIDEIVEEIKMNLESQNMSLDDYLKRMNQTEAQLRANYEATAAEQVRQGLV”, the “soluble fraction (log2)” value was 0.314.

Turning to “HMALDSQEVGYNIEARGARPVVAQLGKAGQFSAVENSIRLGDDNWIALAPKLAGGGNAGFTAGIKSALS”, the “soluble fraction (log2)” value came to 0.0371.

As for “HMALIGSNLRHLRNERKLSQQELADLIRVGRTTIANIEANLANPGHKTLLEIVKVFDITIDELLHTDLTK”, the “soluble fraction (log2)” value is -0.886.

As for “HMALKPKITIEELIRILNESKDLSDSETAKILNKDYTTAKYGKEFTSINVQGARYALDIATNTS”, the “soluble fraction (log2)” value was -0.135.

Take “HMALLSNEDIMFNLEFNRDLAVASNDGVSRDEFLRNKYGISEEEYNMLRARYGDGLNAARIKEYVGQRD”: the “soluble fraction (log2)” value is 0.104.

As for “HMALLSNTVDELHAGMRLDSYLFESGLYPSRSFAVKQIEAGKVFLNGDAVTKKTLVSNGDFIVYELEE”, the “soluble fraction (log2)” value was -0.778.

“HMALMLGGLIVYLNTTAPRDDIDLIELSKDTKAMAAFGNKLASPDYNGKQFALDWHELSRDEIMSKYFS”: the “soluble fraction (log2)” value is -0.987.

On to “HMALPDWLDPEAWAAWKRHRKAIRKPLTEDAVALSIRELAKLRDEGYGPTSVIENAILKGWQGLYPPK”, for which the “soluble fraction (log2)” value was -0.133.
